Reference: US20140322218A1 (Amgen, published 2014)

B1: anti-CDH19 antibody 2G6 (Ab ID 13588) (antibody, human IgG1, lambda, V domains shown)
VH: QVQLVESGGGVVQPGRSLRLSCAASGFTFSSYGMHWVRQAPGKGLEWVAFIWYDGSNKYYADSVKDRFTISRDNSKNTLYLQMKSLRAEDTAVYYCARRAGIIGTIGYYYGMDVWGQGTTVTVSS
VL: SYELTQPPSVSVSPGQTASITCSGDRLGEKYTCWYQQRPGQSPLLVIYQDTKRPSGIPERFSGSNSGNTATLTISGTQAMDEADYYCQAWDSSTVVFGGGTKLTVLG
B2: hu anti-<huCDH19> 26D1.1 VH::huIgG1z / 26D1.1 VL::huLLC-C2 (Ab ID 13882) (antibody, V domains shown)
VH: QVQLVQSGAEVKKPGASVKVSCKASRYTFTSYYMSWVRQAPGQGLEWMGIIHPSGGDTTYAQKFQGRVTMTGDTSTSTVYMELSSLRSEDTAVYYCARGGIKLWLHFDYWGQGTLVTVSS
VL: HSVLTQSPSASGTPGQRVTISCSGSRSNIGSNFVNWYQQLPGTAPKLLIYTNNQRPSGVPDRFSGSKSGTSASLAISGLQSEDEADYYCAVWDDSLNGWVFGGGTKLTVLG
B3: hu anti-<huCDH19> 4B10 VH::huIgG1z / 4B10 VL::huKLC (Ab ID 13590) (antibody, V domains shown)
VH: QVQLVESGGGVVQPGRSLRLSCAASGFTFSSYDMHWVRQAPGKGLEWVAVISYDGTNEYYADSVKGRFTISRDTSKNTLYLQMNSLRAEDTAVYYCARERYFDWSFDYWGQGTLVSVSS
VL: EIVLTQSPGTLSLSPGERATLSCRASQSVSNTYLAWYHQRPGQAPRLLIYGASSRATGIPDRFSGSGSGTDFALTISSLEPEDFAVYYCQQYSNSWTFGQGTKVEIKR
B4: hu anti-<huCDH19> 4A9 VH::huIgG1z / 4A9 VL::huLLC-C1 (Ab ID 13589) (antibody, V domains shown)
VH: QVQLQESGPGLVKPSETLSLTCTVSGGSISGYYWSWIRQPPGKGLEWFAYFSYSGSTNYNPSLKSRVTLSVDTSKNQFSLKLSSVTAADTAVYYCARNWAFHFDFWGQGTLVTVSS
VL: QSVLTQPPSVSGAPGQRVTISCTGSSSNIGTGYAVHWYQQFPGTAPKLLIYGNNNRPSGVPDRFSGSKSGTSASLAITGLQAEDEADYYCQSYDSRLSGWVFGGGTKLTVLG
notes: Recombinant fully human IgG1

Key:
[1] = target: T1, muCDH19(44-139)::huCDH19(142-364)::muCDH19(363-770), Flag-tagged, on 293T cells (human/mouse chimera); assay: FACS, transfected 293T
T1 construct: also called Hu EC2-3; C137847
Description: (§1) The experiment included assaying the anti-CDH19 antibodies against mouse Cadherin19 to determine suitability for binning on these human/mouse chimeras.

[2] = target: T2, muCDH19(44-247)::huCDH19(250-364)::muCDH19(363-770), Flag-tagged, on 293T cells (human/mouse chimera); assay: FACS, transfected 293T
T2 construct: also called Hu EC3; C137911
Description: as §1

Human Cadherin-19 [3] = target: T3, Human Cadherin-19 (human, UniProt Q9H159 44-772); assay: FACS, endogenous and recombinant human CDH19
T3 construct: Residues 1-43 are named as the native leader in the construct designations and are left out; also called human CDH19; huCDH19
Protocol: (§2) FACS binding assays were performed to evaluate the binding of the anti-Cadherin-19 receptor specific antibodies to endogenous Cadherin-19 receptor expressed on the CHL-1 tumor cell lines.
(§3) FACs assays were performed by incubating hybridoma supernatants with 10,000 to 25,000 cells in PBS/2% Fetal bovine serum/2 mM Calcium Chloride at 4° C. for one hour followed by two washes with PBS/2% Fetal bovine serum/2 mM Calcium Chloride. Cells were then treated with florochrome-labeled secondary antibodies at 4° C. followed by one wash. The cells were resuspended in 50 μl of PBS/2% FBS and antibody binding was analyzed using a FACSCalibur™ instrument.

[4] = target: T4, muCDH19(1-43)::FLAG::muCDH19(44-770)::huCDH19(271), on 293T cells (mouse/human chimera); assay: FACS, transfected 293T
T4 construct: Entry holds leader (1-43), Flag tag and CDH19 part; leader left out; also called Hu EC3a
T4 chain: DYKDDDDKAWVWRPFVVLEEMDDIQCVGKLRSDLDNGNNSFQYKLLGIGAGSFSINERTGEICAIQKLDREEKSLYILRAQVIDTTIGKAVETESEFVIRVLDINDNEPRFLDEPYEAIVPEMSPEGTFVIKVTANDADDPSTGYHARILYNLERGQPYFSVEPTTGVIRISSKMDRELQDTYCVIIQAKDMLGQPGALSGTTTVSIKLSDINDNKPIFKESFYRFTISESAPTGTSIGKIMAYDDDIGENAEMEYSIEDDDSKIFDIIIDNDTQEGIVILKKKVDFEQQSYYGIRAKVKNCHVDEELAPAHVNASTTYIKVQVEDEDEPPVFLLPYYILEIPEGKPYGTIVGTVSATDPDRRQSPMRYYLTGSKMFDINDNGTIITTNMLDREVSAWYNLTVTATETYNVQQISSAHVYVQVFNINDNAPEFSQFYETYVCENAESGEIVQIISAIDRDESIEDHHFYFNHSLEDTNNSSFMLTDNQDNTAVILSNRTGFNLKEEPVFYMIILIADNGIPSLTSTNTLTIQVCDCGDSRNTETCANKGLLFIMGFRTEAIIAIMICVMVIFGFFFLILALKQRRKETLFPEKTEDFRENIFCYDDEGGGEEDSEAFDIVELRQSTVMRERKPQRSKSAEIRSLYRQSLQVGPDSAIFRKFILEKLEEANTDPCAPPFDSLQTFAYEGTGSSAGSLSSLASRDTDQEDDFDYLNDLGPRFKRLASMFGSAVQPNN

Human Cadherin-19 [5] = target: T3, Human Cadherin-19; assay: FACS, endogenous CDH19 on CHL-1/Colo699
Protocol: as §2, §3

[6] = target: T5, caCDH19(1-43)::FLAG::caCDH19(44-87)::rhCDH19(89-114)::caCDH19(115-770), on 293T cells (rhesus macaque/dog chimera); assay: FACS, transfected 293T
T5 construct: also called rh EC1b (dog backbone)
T5 chain: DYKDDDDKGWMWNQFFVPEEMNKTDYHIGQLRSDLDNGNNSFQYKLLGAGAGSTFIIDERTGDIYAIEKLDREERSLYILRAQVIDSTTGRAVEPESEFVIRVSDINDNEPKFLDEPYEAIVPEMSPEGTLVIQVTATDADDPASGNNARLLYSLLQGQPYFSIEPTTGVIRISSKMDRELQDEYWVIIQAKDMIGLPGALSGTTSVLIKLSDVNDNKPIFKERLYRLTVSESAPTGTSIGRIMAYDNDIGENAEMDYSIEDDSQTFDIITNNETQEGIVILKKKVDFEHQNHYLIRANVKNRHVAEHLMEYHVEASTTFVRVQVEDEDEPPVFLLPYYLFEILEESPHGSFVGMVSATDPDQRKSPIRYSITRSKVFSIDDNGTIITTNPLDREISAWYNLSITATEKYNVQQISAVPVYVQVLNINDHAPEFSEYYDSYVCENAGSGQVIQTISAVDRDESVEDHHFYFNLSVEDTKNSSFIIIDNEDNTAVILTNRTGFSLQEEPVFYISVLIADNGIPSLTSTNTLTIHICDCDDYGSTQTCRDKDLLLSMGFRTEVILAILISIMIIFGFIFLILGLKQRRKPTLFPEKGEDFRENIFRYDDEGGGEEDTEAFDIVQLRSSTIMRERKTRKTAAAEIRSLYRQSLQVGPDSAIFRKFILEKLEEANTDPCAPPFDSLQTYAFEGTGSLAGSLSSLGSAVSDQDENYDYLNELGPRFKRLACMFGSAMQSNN
Protocol: (§4) The following binding assay was completed in presence of 2 mM CaCl2. […] Cells were then washed one time and the amount of cell associated Alexa647-labelled Ab was quantitated by flow cytometry. The experiments included mock transfected controls.

[7] = target: T6, caCDH19(1-42)::FLAG::caCDH19(43-770), on 293T cells (dog); assay: FACS, transfected 293T
T6 construct: also called Ca EC1-5
T6 chain: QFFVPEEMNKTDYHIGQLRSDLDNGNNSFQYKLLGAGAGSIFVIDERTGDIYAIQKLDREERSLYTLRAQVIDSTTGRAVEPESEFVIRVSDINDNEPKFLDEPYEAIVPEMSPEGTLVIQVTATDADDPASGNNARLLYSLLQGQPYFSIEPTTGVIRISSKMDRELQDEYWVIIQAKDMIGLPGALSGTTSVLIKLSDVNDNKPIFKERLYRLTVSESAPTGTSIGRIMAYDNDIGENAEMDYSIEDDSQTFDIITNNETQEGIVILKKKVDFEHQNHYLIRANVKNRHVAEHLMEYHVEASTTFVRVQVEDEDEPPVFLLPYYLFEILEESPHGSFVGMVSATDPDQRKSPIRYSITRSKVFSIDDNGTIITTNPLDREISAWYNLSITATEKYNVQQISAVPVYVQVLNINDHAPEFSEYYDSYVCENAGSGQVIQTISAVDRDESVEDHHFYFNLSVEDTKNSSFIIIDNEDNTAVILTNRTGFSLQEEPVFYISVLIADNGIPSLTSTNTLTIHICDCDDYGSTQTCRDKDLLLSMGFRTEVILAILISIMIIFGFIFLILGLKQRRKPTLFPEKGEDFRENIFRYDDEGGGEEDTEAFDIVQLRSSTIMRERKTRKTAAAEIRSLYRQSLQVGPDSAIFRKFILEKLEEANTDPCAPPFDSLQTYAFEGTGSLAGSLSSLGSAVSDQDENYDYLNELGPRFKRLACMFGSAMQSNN
Protocol: as §4

[8] = target: T7, rhCDH19(1-43)::FLAG::rhCDH19(44-141)::caCDH19(141-770), on 293T cells (rhesus macaque/dog chimera); assay: FACS, transfected 293T
T7 construct: Entry holds leader (1-43), Flag tag and CDH19 part; leader left out; also called rh EC1 (dog backbone)
Protocol: as §4

Binder | binding result [1] | binding result [2] | binding result (Human Cadherin-19 [3]) | binding result [4] | binding result (Human Cadherin-19 [5]) | binding result [6] | binding result [7] | binding result [8]
B1 | binds | binds | binds | binds |  |  |  | 
B2 |  |  |  |  | binds | binds | no binding (tested: 5 ug/ml) | binds
B3 | binds | binds | binds | no binding (tested: 5 ug/ml) |  |  |  | 
B4 |  |  |  |  | binds | no binding (tested: 5 ug/ml) | no binding (tested: 5 ug/ml) | binds
